From the supplement of paper PMC9112550, “Optimization of the antimicrobial peptide Bac7 by deep mutational scanning” (BMC Biology, 2022)

Test system: Escherichia coli TOP10
Test: shrunken log2 fold change of peptide-encoding DNA abundance (4.5 h post-induction vs induction); higher = less antimicrobial activity (less host growth inhibition)
Details: time post-induction: 4.5 h; library: site-saturation at positions 5, 18, 19, 20
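Further: peptides expressed intracellularly from a pBAD plasmid library in pooled LB shake-flask culture, induced with 0.3% L-arabinose, DNA abundance read by NGS, three biological replicates, DESeq2 with apeglm shrinkage.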

| Sequence | shrunken log2 fold change |
| --- | --- |
| RRIRLRPPRLPRPRPRPFEHPRP | 0.0204 |
| RRIRHRPPRLPRPRPRPPNRPRP | -0.0966 |
| RRIRCRPPRLPRPRPRPFNRPRP | -0.466 |
| RRIRCRPPRLPRPRPRPEDDPRP | 0.159 |
| RRIRTRPPRLPRPRPRPWHDPRP | -0.0708 |
| RRIRIRPPRLPRPRPRPKGVPRP | -0.00153 |
| RRIRHRPPRLPRPRPRPVQPPRP | -0.0332 |
| RRIRLRPPRLPRPRPRPMRAPRP | 0.862 |
| RRIRERPPRLPRPRPRPTYVPRP | -0.132 |
| RRIRTRPPRLPRPRPRPEAIPRP | -0.00172 |
| RRIRLRPPRLPRPRPRPVMPPRP | -0.29 |
| RRIRKRPPRLPRPRPRPVWIPRP | 0.0328 |
| RRIRTRPPRLPRPRPRPSWEPRP | 0.0239 |
| RRIRYRPPRLPRPRPRPRWSPRP | -0.225 |
| RRIRMRPPRLPRPRPRPIFVPRP | -0.111 |
| RRIRSRPPRLPRPRPRPDAFPRP | 0.387 |
| RRIRRRPPRLPRPRPRPVRDPRP | 0.718 |
| RRIRCRPPRLPRPRPRPAFWPRP | 0.232 |
| RRIRNRPPRLPRPRPRPNFIPRP | -0.105 |
| RRIRNRPPRLPRPRPRPRIAPRP | 0.069 |
| RRIRMRPPRLPRPRPRPTECPRP | 0.0996 |
| RRIRRRPPRLPRPRPRPPADPRP | 0.781 |

| Sequence | shrunken log2 fold change |
| --- | --- |
| RRIRCRPPRLPRPRPRPLYAPRP | -0.3 |
| RRIRRRPPRLPRPRPRPLNNPRP | -0.338 |
| RRIRKRPPRLPRPRPRPRAGPRP | 0.48 |
| RRIRDRPPRLPRPRPRPTTPPRP | 0.351 |
| RRIRPRPPRLPRPRPRPMGVPRP | 0.0399 |
| RRIRDRPPRLPRPRPRPFLKPRP | -0.212 |
| RRIRRRPPRLPRPRPRPWLCPRP | 0.102 |
| RRIRNRPPRLPRPRPRPPMFPRP | -0.0155 |
| RRIRTRPPRLPRPRPRPNLSPRP | 0.00227 |
| RRIRTRPPRLPRPRPRPIHIPRP | 0.0274 |
| RRIRYRPPRLPRPRPRPVKWPRP | 0.0689 |
| RRIRSRPPRLPRPRPRPFTLPRP | -0.163 |
| RRIRRRPPRLPRPRPRPGNMPRP | -0.266 |
| RRIRFRPPRLPRPRPRPTYNPRP | -0.767 |
| RRIRERPPRLPRPRPRPSWVPRP | -0.178 |
| RRIRERPPRLPRPRPRPYYSPRP | -0.0755 |
| RRIRPRPPRLPRPRPRPKEEPRP | 0.0604 |
| RRIRARPPRLPRPRPRPWRSPRP | 0.143 |
| RRIRWRPPRLPRPRPRPEPPPRP | 0.977 |
| RRIRTRPPRLPRPRPRPYFAPRP | -0.193 |
| RRIRSRPPRLPRPRPRPSESPRP | -0.198 |
| RRIRHRPPRLPRPRPRPFEAPRP | -0.214 |

| Sequence | shrunken log2 fold change |
| --- | --- |
| RRIRMRPPRLPRPRPRPAERPRP | 0.385 |
| RRIRNRPPRLPRPRPRPWHHPRP | -0.209 |
| RRIRGRPPRLPRPRPRPKDWPRP | 0.914 |
| RRIRVRPPRLPRPRPRPSDEPRP | -0.463 |
| RRIRQRPPRLPRPRPRPFTQPRP | -0.0608 |
| RRIRYRPPRLPRPRPRPYVLPRP | -0.35 |
| RRIRQRPPRLPRPRPRPLDWPRP | 0.099 |
| RRIRSRPPRLPRPRPRPFPPPRP | -0.0275 |
| RRIRHRPPRLPRPRPRPPREPRP | 0.204 |
| RRIRGRPPRLPRPRPRPDANPRP | 1.99 |
| RRIRMRPPRLPRPRPRPPGMPRP | 1.08 |
| RRIRQRPPRLPRPRPRPELTPRP | 0.232 |
| RRIRHRPPRLPRPRPRPNAPPRP | 0.0964 |
| RRIRCRPPRLPRPRPRPTPWPRP | 0.49 |
| RRIRIRPPRLPRPRPRPMSSPRP | -0.215 |
| RRIRFRPPRLPRPRPRPGEQPRP | -0.0185 |
| RRIRNRPPRLPRPRPRPKRYPRP | 0.0391 |
| RRIRFRPPRLPRPRPRPWWWPRP | 0.0474 |
| RRIRWRPPRLPRPRPRPHSYPRP | -0.0789 |
| RRIRNRPPRLPRPRPRPVFRPRP | -0.165 |
| RRIRGRPPRLPRPRPRPPCSPRP | 0.238 |
| RRIRERPPRLPRPRPRPHVQPRP | -0.434 |

| Sequence | shrunken log2 fold change |
| --- | --- |
| RRIRDRPPRLPRPRPRPYCDPRP | -0.181 |
| RRIRQRPPRLPRPRPRPQGQPRP | 0.254 |
| RRIRMRPPRLPRPRPRPKYTPRP | 0.169 |
| RRIRMRPPRLPRPRPRPHPKPRP | 0.0698 |
| RRIRRRPPRLPRPRPRPVSPPRP | 0.0657 |
| RRIRRRPPRLPRPRPRPQMYPRP | -0.183 |
| RRIRIRPPRLPRPRPRPHKTPRP | -0.000475 |
| RRIRWRPPRLPRPRPRPETFPRP | 0.0493 |
| RRIRMRPPRLPRPRPRPEMWPRP | 2.4 |
| RRIRIRPPRLPRPRPRPVMKPRP | 0.012 |
| RRIRSRPPRLPRPRPRPFWCPRP | -0.0118 |
| RRIRVRPPRLPRPRPRPDWMPRP | -0.0942 |
| RRIRLRPPRLPRPRPRPYFQPRP | -0.269 |
| RRIRYRPPRLPRPRPRPVQTPRP | -0.00992 |
| RRIRYRPPRLPRPRPRPNLCPRP | -1.35 |
| RRIRTRPPRLPRPRPRPAAIPRP | 0.163 |
| RRIRVRPPRLPRPRPRPCWGPRP | -0.0908 |
| RRIRIRPPRLPRPRPRPWMAPRP | -0.547 |
| RRIRSRPPRLPRPRPRPYITPRP | -0.535 |
| RRIRRRPPRLPRPRPRPTVMPRP | 0.286 |
| RRIRNRPPRLPRPRPRPFIPPRP | -0.0923 |
| RRIRIRPPRLPRPRPRPENQPRP | -0.473 |

| Sequence | shrunken log2 fold change |
| --- | --- |
| RRIRQRPPRLPRPRPRPVKWPRP | 0.746 |
| RRIRERPPRLPRPRPRPHHHPRP | -0.58 |
| RRIRMRPPRLPRPRPRPSNWPRP | 0.225 |
| RRIRFRPPRLPRPRPRPCHVPRP | 0.0269 |
| RRIRSRPPRLPRPRPRPLNNPRP | -0.124 |
| RRIRCRPPRLPRPRPRPRWSPRP | 0.422 |
| RRIRHRPPRLPRPRPRPHHCPRP | -0.152 |
| RRIRHRPPRLPRPRPRPSVYPRP | -0.47 |
| RRIRQRPPRLPRPRPRPCGPPRP | -0.141 |
| RRIRCRPPRLPRPRPRPAAYPRP | -0.101 |
| RRIRRRPPRLPRPRPRPIKFPRP | -0.202 |
| RRIRNRPPRLPRPRPRPFIHPRP | -0.116 |
| RRIRQRPPRLPRPRPRPEAQPRP | 0.285 |
| RRIRKRPPRLPRPRPRPRVKPRP | -0.0843 |
| RRIRWRPPRLPRPRPRPESGPRP | 0.347 |
| RRIRSRPPRLPRPRPRPTWSPRP | -0.0422 |
| RRIRMRPPRLPRPRPRPTDNPRP | 0.188 |
| RRIRMRPPRLPRPRPRPDFTPRP | 0.463 |
| RRIRHRPPRLPRPRPRPEPWPRP | 0.171 |
| RRIRVRPPRLPRPRPRPDLHPRP | -0.0023 |
| RRIRVRPPRLPRPRPRPEEGPRP | -0.01 |
